Key:
[1] = system: subgenomic HCV replicon of genotype 1b; assay: microbe, parasite or virus in culture; format: cell-based, hepatitis C virus
Description: Huh7 human hepatoma cells were cultured in Dulbecco's modified Eagle medium (DMEM; Invitrogen, Carlsbad, Calif., USA) supplemented with 10% fetal bovine serum (FBS; Invitrogen), 100 units/ml of penicillin, and 100 μg/ml of streptomycin in a 5% CO2 incubator. SgPC2 cells are G418-selected, pooled Huh7 cell clones that support the continuous replication of a subgenomic HCV replicon of genotype 1b and [29] (GenBank Accession No. AJ242652) that carries a S11791 adaptive mutation within the NS5A region. SgPC2 cells were maintained in the above medium supplemented with 0.5 mg/ml G418 (Invitrogen). G418 was removed at least 1 day before cell treatments.

[2] = system: intracellular calcium concentration ([Ca^2+]i); assay: [Ca^2+]i measurement with Indo-1 AM in SgPC2 cells; format: cell-based, human; conditions: 24 h, 2 mU/ml GO
Description: Briefly, on the day of the experiment, cells were washed in Krebs-Ringer phosphate buffer (KRPH; pH 7.4, containing 1.0 mM MgSO4, 1.3 mM CaCl2, 10 mM Hepes, 5 mM glucose, 125 mM NaCl, 5 mM KCl, and 10 mM sodium phosphate) and subsequently loaded with 10-20 μM Indo-1 AM (70 μl/coverslip; Molecular Probes, Inc., Eugene, Oreg., USA) containing 10 μM probenecid (Molecular Probes) for 30 min at 37° C. The attached cells were washed and bathed in KRPH/probenecid at 4° C. or room temperature until further analysis. Then, coverslips were individually submerged into KRPH and preequilibrated inside the […] fluorimeter (Hitachi) in darkness for 3 min, and [Ca^2+]i was monitored continuously at 37° C., with excitation at […] and emission at 400 and 450 nm. H2O2 and other agents were injected at different time points, as indicated under Results. [Ca^2+]i was calculated as described. Rmax was determined by adding 8-16 μM digitonin and Rmin with 10 mM ethylene glycol-bis(β-aminoethyl)-N,N,N'-tetraacetic acid (EGTA). […] The baseline, which represented unstimulated cells scanned over time, was plotted along with other measurements or subtracted from the other plots. Cells were serum-depleted, 1 day before the experiment, by incubating them overnight in DMEM plus 0.5% FBS. […] Then, CaCl2 was added before determining the Rmax for each run.

JFH1 HCV (genotype 2a) = format: cell-based, hepatitis C virus; conditions: JFH1-transfected cells, 0.25 mU/mL GO plus glucose
Description: (§1) For viral RNA transfection, JFH1, JFH1/GND, and pSGR-JFH1-Luc were linearized with XbaI and used to synthesize the corresponding positive-sense stranded HCV RNA, as previously described (68). Then, 5×10^6 Huh7 cells were rinsed with Opti-Mem (Invitrogen), mixed briefly with 10-20 μg of the in vitro transcribed RNA in 0.4 ml of Opti-Mem, and then electroporated at 260 volts and 950 μF. […] Medium was changed daily. For infection with HCV, medium collected from JFH1 RNA-transfected cells were cleared of cell debris, as described, and added to naïve Huh7 cells. Typically, 1:2 or 3:2 ratio of the virus-containing medium and fresh cell culture medium were used.
JFH1/GND was used as the negative control. […]
Intracellular JFH1 HCV RNA content was also analyzed by qRT-PCR (Taqman), using ABI7300 real time PCR system and one step RT-PCR kit from Applied Biosystems. […] All samples were analyzed in duplicates or triplicates. […] The level of 18S rRNA was also analyzed, using manufacturer-optimized protocol, as the control.
To analyze the amount of the extracellular HCV RNA, medium from the cells were cleared by low-speed centrifugation and then, treated with RNaseA at room temperature. Then, the RNA samples were extracted, using Trizol LS Reagent (Invitrogen), and analyzed for HCV RNA content by qRT-PCR.

[3] = system: SgJFH1-Luc RNA (subgenomic JFH1 replicon); assay: SgJFH1-Luc RNA replication in Huh7 cells, luciferase assay; format: cell-based, hepatitis C virus; conditions: Huh7 cells transfected with SgJFH1-Luc RNA
Description: as §1
SgJFH1-Luc RNA replication was also monitored by firefly luciferase reporter assay, using a kit from Promega.
To investigate whether the HCV RNA replication is modulated by ROS, Huh7 cells were transfected with the SgJFH1-Luc RNA and treated with GO plus glucose.
After 24 and 48 hours, respectively, the cells were collected in PBS, centrifuged, lysed in the reporter lysis buffer (Promega), and analyzed for luciferase activity.

JFH1-transfected cells = assay: ATP concentration as cytotoxicity measure in JFH1-transfected cells; conditions: JFH1-transfected cells, concentrations used
Description: Determination of ATP concentrations—ATP level was measured, using Somatic Cell ATP Assay kit from Sigma-Aldrich, as previously described (68). Protein level was determined with bicinchoninic acid kit (Pierce Biotechnology, Inc., Rockford, Ill.).
ATP concentration was measured to determine if the treatments were cytotoxic to the cells.

HCV NS5A = conditions: after 24 h of GO exposure
Description: Cells were sonicated in 2× Laemmli buffer and total protein samples were analyzed for HCV NS5A level by Western blot, using monoclonal anti-NS5A antibodies (Biodesign) and the corresponding horseradish peroxidase-conjugated secondary antibodies. Chemiluminescent images were processed with an ECL kit from Amersham Pharmacia and analyzed with the IS2000 gel imaging system (Kodak).

B1: IFN-γ: interferon-γ, known to inhibit HCV RNA replication in Huh7 cells (protein, UniProt P01579 24-161, looked up)
Interferon gamma: QDPYVKEAENLKKYFNAGHSDVADNGTLFLGILKNWKEESDRKIMQSQIVSFYFKLFKNFKDDQSIQKSVETIKEDMNVKFFNSNKKKRDDFEKLTNYSVTDLNVQRKAIHELIQVMAELSPAAKTGKRKRSQMLFRG
effect on HCV RNA replication after 30 min of treatment ([1]; 30 min treatment): no appreciable effect
HCV RNA level, % of control level ([1]; SgPC2 cells, 24 h, 100 U/ml): about 15%

B2: catalase: exogenous catalase (Sigma-Aldrich) added to confirm the role of H2O2 (protein, UniProt P00432 2-527, looked up)
Catalase: ADNRDPASDQMKHWKEQRAAQKPDVLTTGGGNPVGDKLNSLTVGPRGPLLVQDVVFTDEMAHFDRERIPERVVHAKGAGAFGYFEVTHDITRYSKAKVFEHIGKRTPIAVRFSTVAGESGSADTVRDPRGFAVKFYTEDGNWDLVGNNTPIFFIRDALLFPSFIHSQKRNPQTHLKDPDMVWDFWSLRPESLHQVSFLFSDRGIPDGHRHMNGYGSHTFKLVNANGEAVYCKFHYKTDQGIKNLSVEDAARLAHEDPDYGLRDLFNAIATGNYPSWTLYIQVMTFSEAEIFPFNPFDLTKVWPHGDYPLIPVGKLVLNRNPVNYFAEVEQLAFDPSNMPPGIEPSPDKMLQGRLFAYPDTHRHRLGPNYLQIPVNCPYRARVANYQRDGPMCMMDNQGGAPNYYPNSFSAPEHQPSALEHRTHFSGDVQRFNSANDDNVTQVRTFYLKVLNEEQRKRLCENIAGHLKDAQLFIQKKAVKNFSDVHPEYGSRIQALLDKYNEEKPKNAVHTYVQHGSHLSAREKANL
effect on the suppression of HCV RNA by GO ([1]; SgPC2 cells, GO 24 h, 130-200 U/ml catalase or 2 μM BAPTA-AM): attenuated the suppression by GO

B3: GO: enzyme which catalyzes the oxidation of β-D-glucose to D-glucono-1,5-lactone and hydrogen peroxide (protein, UniProt P13006 17-605, looked up)
Glucose oxidase: LPHYIRSNGIEASLLTDPKDVSGRTVDYIIAGGGLTGLTTAARLTENPNISVLVIESGSYESDRGPIIEDLNAYGDIFGSSVDHAYETVELATNNQTALIRSGNGLGGSTLVNGGTWTRPHKAQVDSWETVFGNEGWNWDNVAAYSLQAERARAPNAKQIAAGHYFNASCHGVNGTVHAGPRDTGDDYSPIVKALMSAVEDRGVPTKKDFGCGDPHGVSMFPNTLHEDQVRSDAAREWLLPNYQRPNLQVLTGQYVGKVLLSQNGTTPRAVGVEFGTHKGNTHNVYAKHEVLLAAGSAVSPTILEYSGIGMKSILEPLGIDTVVDLPVGLNLQDQTTATVRSRITSAGAGQGQAAWFATFNETFGDYSEKAHELLNTKLEQWAEEAVARGGFHNTTALLIQYENYRDWIVNHNVAYSELFLDTAGVASFDVWDLLPFTRGYVHILDKDPYLHHFAYDPQYFLNELDLLGQAAATQLARNISNSGAMQTYFAGETIPGDNLAYDADLSAWTEYIPYHFRPNYHGVGTCSMMPKEMGGVVDNAARVYGVQGLRVIDGSIPPTQMSSHVMTVFYAMALKISDAILEDYASMQ
effect on HCV RNA level / replication [1]: dose-dependently suppressed
intracellular calcium concentration [2]: 66.4 ± 10.7 nM
decrease of intracellular HCV RNA content (JFH1 HCV (genotype 2a)): 30±8%
HCV RNA level by luciferase activity [3]: decreased HCV RNA level
cytotoxicity (ATP concentration, cell survivability) (JFH1-transfected cells): did not cause any loss in cell survivability
NS5A protein level (HCV NS5A): decrease

From patent US20090123447A1, “COMPOSITIONS AND METHODS TO INHIBIT RNA VIRAL REPRODUCTION” (priority 2007, published 2009)
